# Experimental data as given in patent publication US5928915A, “CHO cell sialidase by recombinant DNA technology” (Genentech, Inc., priority 1997, dated 1999).
# Target: T1, CHO cell sialidase (Cricetulus griseus, UniProt Q64393)
# T1 construct: The sialidase described was purified from the cell culture fluid of a single production cell line (CHO 14.16); endogenous in cells; host or cells: CHO 14.16 cells (purified from the cell culture fluid)
# Assay: Sialidase kinetic constants with soluble sialylglycoconjugate substrates
# Type: biochemical, Chinese hamster
# Description: Fluorescent sialidase assays: Standard assay conditions for monitoring the enzyme activity during purification using the fluorescent substrate analog are: 1.3 mM 4-MUNeu5Ac, 50 mM phosphate buffer, pH 6.8, 0.3 mg bovine serum albumin and varying amounts of enzyme in a total volume of 30 μl. After addition of enzyme the samples are incubated at 37° C. in a shaking water bath for 5 minutes. The reaction is terminated and the fluorescence of the liberated umbelliferone is enhanced by the addition of 2 ml of 80 mM glycine-carbonate buffer, pH 9.7. Quantification of the product is made by measuring the fluorescence of the samples with excitation at 365 nm and emission at 450 nm using a standard of 4-methyl umbelliferone. A unit of enzyme activity is defined as a μmol/min of sialic acid liberated.
# Sialidase assays with natural substrates: When natural substrates are tested with the purified enzyme, the amount of released sialic acid is measured using the thiobarbituric acid assay as modified by Uchida [Uchida et al. J. Biochem., 82:1425 (1977)] using sialic acid as standard. […] All samples are cleared by centrifugation (1,000×G, 10 min) prior to determining the absorbance at 540 nm.
# Enzyme kinetic parameters: Assay conditions (time and added enzyme) are modified for each substrate so that initial reaction rates are measured. […]
# T1 sequence (Q64393 whole entry): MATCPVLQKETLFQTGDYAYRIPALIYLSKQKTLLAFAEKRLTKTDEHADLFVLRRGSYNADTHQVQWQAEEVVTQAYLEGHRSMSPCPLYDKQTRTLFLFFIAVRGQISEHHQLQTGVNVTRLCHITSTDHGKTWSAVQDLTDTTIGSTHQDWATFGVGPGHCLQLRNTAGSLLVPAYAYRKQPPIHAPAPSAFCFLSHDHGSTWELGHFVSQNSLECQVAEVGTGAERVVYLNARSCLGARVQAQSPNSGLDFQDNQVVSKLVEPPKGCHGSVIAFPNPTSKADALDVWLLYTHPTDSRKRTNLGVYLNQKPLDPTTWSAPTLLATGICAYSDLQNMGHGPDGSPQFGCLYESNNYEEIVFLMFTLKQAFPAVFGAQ
molecule,measurement,setting,value
"rDeoxyribonuclease 1: encoded by a human-derived nucleotide sequence, was expressed in Chinese hamster ovary cells (protein, UniProt P24855 23-282, looked up) Deoxyribonuclease-1: LKIAAFNIQTFGETKMSNATLVSYIVQILSRYDIALVQEVRDSHLTAVGKLLDNLNQDAPDTYHYVVSEPLGRNSYKERYLFVYRPDQVSAVDSYYYDDGCEPCGNDTFNREPAIVRFFSRFTEVREFAIVPLHAAPGDAVAEIDALYDVYLDVQEKWGLEDVMLMGDFNAGCSYVRPSQWSSIRLWTSPTFQWLIPDSADTTATPTHCAYDRIVVAGMLLRGAVVPDSALPFNFQAAYGLSDQLAQAISDHYPVEVMLK",Vmax,"apparent, standard assay conditions, average of duplicates, relative error about 10%",12 µmol/min/mg
same,Km values compared (in words),transferrin versus deoxyribonuclease I,nearly identical
